Reference: paper PMC4192074
Read-outs that look alike come from different tables or passages of the source.

Key:
Dis3L2 wild type [1] = target: T1, Dis3L2 wild type (mouse, UniProt Q8CI75 1-870); assay: filter binding
T1 sequence: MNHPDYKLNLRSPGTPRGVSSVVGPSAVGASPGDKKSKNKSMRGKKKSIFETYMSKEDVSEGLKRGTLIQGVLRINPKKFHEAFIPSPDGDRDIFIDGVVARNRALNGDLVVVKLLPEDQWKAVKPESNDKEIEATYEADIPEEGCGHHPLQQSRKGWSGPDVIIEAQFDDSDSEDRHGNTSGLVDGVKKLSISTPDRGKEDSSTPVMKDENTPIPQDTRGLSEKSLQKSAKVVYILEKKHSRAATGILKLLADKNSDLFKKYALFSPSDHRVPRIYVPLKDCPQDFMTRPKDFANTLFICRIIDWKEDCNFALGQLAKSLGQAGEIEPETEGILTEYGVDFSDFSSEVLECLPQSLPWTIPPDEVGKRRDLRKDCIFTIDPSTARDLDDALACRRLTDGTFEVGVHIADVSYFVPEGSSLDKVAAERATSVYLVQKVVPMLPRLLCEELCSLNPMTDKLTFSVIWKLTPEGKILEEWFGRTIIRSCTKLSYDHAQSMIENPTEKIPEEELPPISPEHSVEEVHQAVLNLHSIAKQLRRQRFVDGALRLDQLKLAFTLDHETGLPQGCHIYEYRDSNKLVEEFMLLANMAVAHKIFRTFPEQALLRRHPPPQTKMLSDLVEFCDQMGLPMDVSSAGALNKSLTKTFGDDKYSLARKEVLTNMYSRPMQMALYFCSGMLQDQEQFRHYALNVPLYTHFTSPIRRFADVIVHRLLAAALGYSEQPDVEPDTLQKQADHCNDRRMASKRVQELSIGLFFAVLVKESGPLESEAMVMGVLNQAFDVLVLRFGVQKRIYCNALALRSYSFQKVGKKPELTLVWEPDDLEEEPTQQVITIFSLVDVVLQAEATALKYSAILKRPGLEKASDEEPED

Dis3L2 wild type [2] = target: T1, Dis3L2 wild type; assay: filter binding; remark: listed apart in the source
[3] = target: T2, Dis3L2 truncated D389N (crystal construct) (mouse, UniProt Q8CI75 37-857, D389N;del148-169;del194-221); assay: X-ray crystallography
T2 sequence: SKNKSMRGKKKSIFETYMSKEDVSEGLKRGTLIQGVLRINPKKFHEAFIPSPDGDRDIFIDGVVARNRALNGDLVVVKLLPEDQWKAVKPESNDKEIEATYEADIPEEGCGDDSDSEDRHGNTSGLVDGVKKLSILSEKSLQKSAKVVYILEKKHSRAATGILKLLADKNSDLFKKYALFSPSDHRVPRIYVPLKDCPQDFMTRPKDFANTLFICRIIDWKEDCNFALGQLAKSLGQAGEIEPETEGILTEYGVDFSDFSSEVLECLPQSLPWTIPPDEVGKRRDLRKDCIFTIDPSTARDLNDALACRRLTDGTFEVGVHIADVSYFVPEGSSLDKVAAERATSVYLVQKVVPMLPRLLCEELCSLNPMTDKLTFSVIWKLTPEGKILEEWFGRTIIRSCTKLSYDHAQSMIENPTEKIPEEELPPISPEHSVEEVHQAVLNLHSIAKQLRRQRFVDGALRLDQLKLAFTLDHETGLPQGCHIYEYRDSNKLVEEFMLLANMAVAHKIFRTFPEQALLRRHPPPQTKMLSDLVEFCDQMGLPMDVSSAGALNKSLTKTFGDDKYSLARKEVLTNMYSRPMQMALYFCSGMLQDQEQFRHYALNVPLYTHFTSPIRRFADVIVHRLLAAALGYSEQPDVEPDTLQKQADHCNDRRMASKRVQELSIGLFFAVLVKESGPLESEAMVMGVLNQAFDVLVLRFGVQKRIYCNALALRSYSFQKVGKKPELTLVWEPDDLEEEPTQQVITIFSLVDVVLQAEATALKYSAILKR

Dis3L2 wild type [4] = target: T1, Dis3L2 wild type; assay: filter binding; remark: listed apart in the source
Dis3L2 wild type [5] = target: T1, Dis3L2 wild type; assay: filter binding; remark: listed apart in the source

UUUUUUUUUUUUUUU (ssRNA) [U15]: binds (Dis3L2 wild type [1]).

B1: pre-let-7 (pre-let7a1) (structured_RNA)
RNA: UGAGGUAGUAGGUUGUAUAGUUUUAGGGUCACACCCACCACUGGGAGAUAACUAUACAAUCUACUGUCUUUC
B1 was tested, and the binding signal (Dis3L2 wild type [2]) was 10 fold weaker than pre-let-7-U15.

UUUUUUUUUUUUU (ssRNA) [U13]: binds [3].

Binder CCCCCCCCCCCCCCC (ssRNA) [C15] has a binding signal (Dis3L2 wild type [4]) greater than 200 fold weaker than U15.

UUUUUUUUUUUUUUU (ssDNA, 2'-deoxyuridine at all positions) [deoxyU15]: binds (Dis3L2 wild type [5]).

In the case of AAAAAAAAAAAAAAA (ssRNA) [A15], the binding signal (Dis3L2 wild type [4]) is reported as greater than 200 fold weaker than U15.
